Sequences and labels used below:
B1: 鼠源TSLP单克隆抗体3A1H2B2E1(1K/1H) (antibody, mouse IgG1, kappa)
heavy: EVKLVESGGGLVQPGGSRKLSCAASGFTFSSFGMHWVRQAPEKGLEWVAYISSGSSIIHYADTVKGRFTISRDNPKNTLFLQMTSLRSEDTAMYYCAREPYGYDVYYFDYWGQGTTITVSSAKTTPPSVYPLAPGSAAQTNSMVTLGCLVKGYFPEPVTVTWNSGSLSSGVHTFPAVLESDLYTLSSSVTVPSSPRPSETVTCNVAHPASSTKVDKKIVPRDCGCKPCICTVPEVSSVFIFPPKPKDVLTITLTPKVTCVVVDISKDDPEVQFSWFVDDVEVHTAQTQPREEQFNSTFRSVSELPIMHQDWLNGKEFKCRVNSAAFPAPIEKTISKTKGRPKAPQVYTIPPPKEQMAKDKVSLTCMITDFFPEDITVEWQWNGQPAENYKNTQPIMNTNGSYFVYSKLNVQKSNWEAGNTFTCSVLHEGLHNHHTEKSLSHSPGK
light: DIVMTQSPASLAVSLGQRATISCKASQSIDYDGDSYMNWYQQKPGQPPKLLIYAASNLDSGIPARFSGSGSGTDFTLNIHPVEEEDAATYYCQQSNEDPYTFGGGTKLEIKRADAAPTVSIFPPSSEQLTSGGASVVCFLNNFYPKDINVKWKIDGSERQNGVLNSWTDQDSKDSTYSMSSTLTLTKDEYERHNSYTCEATHKTSTSPIVKSFNRNEC
notes: also called 鼠源单克隆抗体1K/1H
B2: 人源化单克隆抗体1K3/1H2 (antibody, human IgG1, kappa, V domains shown)
VH: EVKLVESGGGLVQPGGSLKLSCAASGFTFSSFGMNWVRQAPGKGLEWVAYISSGSSIIYYADSVKGRFTISRDNPKNSLYLQMNSLRDEDTAVYYCAREPYGYDVYYFDYWGQGTTVTVSS
VL: DIVMTQSPASLAVSPGQRATISCKASQSIDYDGDSYMNWYQQKPGQPPKLLIYAASNLDTGIPARFSGSGSGTDFTLTISSVEEEDTATYYCQQSNEDPYTFGGGTKVEIKR
B3: 人源化单克隆抗体6K3/3H2 (antibody, human IgG1, kappa, V domains shown)
VH: QVQLVQSGAELKKPGASVKISCKASGFNIKDYYMHWVRQRPEQGLEWIGWIDPENGNTIYAQKFQGRATITADTSTDTAYMELSSLTSEDTAVYYCAREGDGNYLWFAYWGQGTLVTVSS
VL: DIQMTQSPSSLSASLGDKVTITCKASQDINKYIAWYQHKPGKAPKLLIHYTSTLEPGVPSRFSGSGSGTDFTFSISSLEPEDIATYYCLHYDNLLTFGGGTKLEIKR
notes: Humanized from 6K/3H; expressed in 293F cells
B4: 人源化单克隆抗体1K2/1H3 (antibody, human IgG1, kappa, V domains shown)
VH: EVQLVESGGGLVQPGGSLRLSCAASGFTFSSFGMHWVRQAPGKGLEWVSYISSGSSIIYYADTVKGRFTISRDNAKNSLFLQMNSLRSEDTAVYYCAREPYGYDVYYFDYWGQGTLVTVSS
VL: DIVLTQSPASLAVSLGQRATITCKASQSIDYDGDSYLNWYQQKPGQPPKLLIYAASNKDSGVPARFSGSGSGTDFTLTINPVEAEDFAVYYCQQSNEDPYTFGGGTKVEIKR
notes: Humanized from 1K/1H; expressed in 293F cells
B5: 人源化单克隆抗体1K1/1H1 (antibody, human IgG1, kappa, V domains shown)
VH: EVQLVESGGGLVQPGGSRRLSCAASGFTFSSFGMNWVRQAPEKGLEWVAYISSGSSIIYYADSVKGRFTISRDNAKNSLYLQMTSLRAEDTAVYYCAREPYGYDVYYFDYWGQGTLVTVSS
VL: DIVMTQSPASLAVSLGQRATITCKASQSIDYDGDSYMNWYQQKPGQPPKLLIYAASNLDSGVPARFSGSGSGTDFTLTIHPVEPEDFATYYCQQSNEDPYTFGGGTKVEIKR
notes: as for B4
B6: 人源化单克隆抗体1K3/1H3 (antibody, human IgG1, kappa, V domains shown)
VH: EVQLVESGGGLVQPGGSLRLSCAASGFTFSSFGMHWVRQAPGKGLEWVSYISSGSSIIYYADTVKGRFTISRDNAKNSLFLQMNSLRSEDTAVYYCAREPYGYDVYYFDYWGQGTLVTVSS
VL: DIVMTQSPASLAVSPGQRATISCKASQSIDYDGDSYMNWYQQKPGQPPKLLIYAASNLDTGIPARFSGSGSGTDFTLTISSVEEEDTATYYCQQSNEDPYTFGGGTKVEIKR
notes: as for B4
B7: 人源化单克隆抗体1K2/1H1 (antibody, human IgG1, kappa, V domains shown)
VH: EVQLVESGGGLVQPGGSRRLSCAASGFTFSSFGMNWVRQAPEKGLEWVAYISSGSSIIYYADSVKGRFTISRDNAKNSLYLQMTSLRAEDTAVYYCAREPYGYDVYYFDYWGQGTLVTVSS
VL: DIVLTQSPASLAVSLGQRATITCKASQSIDYDGDSYLNWYQQKPGQPPKLLIYAASNKDSGVPARFSGSGSGTDFTLTINPVEAEDFAVYYCQQSNEDPYTFGGGTKVEIKR
notes: as for B4
B8: 人源化单克隆抗体1K1/1H3 (antibody, human IgG1, kappa, V domains shown)
VH: EVQLVESGGGLVQPGGSLRLSCAASGFTFSSFGMHWVRQAPGKGLEWVSYISSGSSIIYYADTVKGRFTISRDNAKNSLFLQMNSLRSEDTAVYYCAREPYGYDVYYFDYWGQGTLVTVSS
VL: DIVMTQSPASLAVSLGQRATITCKASQSIDYDGDSYMNWYQQKPGQPPKLLIYAASNLDSGVPARFSGSGSGTDFTLTIHPVEPEDFATYYCQQSNEDPYTFGGGTKVEIKR
notes: as for B4
B9: 人源化单克隆抗体1K3/1H1 (antibody, human IgG1, kappa, V domains shown)
VH: EVQLVESGGGLVQPGGSRRLSCAASGFTFSSFGMNWVRQAPEKGLEWVAYISSGSSIIYYADSVKGRFTISRDNAKNSLYLQMTSLRAEDTAVYYCAREPYGYDVYYFDYWGQGTLVTVSS
VL: DIVMTQSPASLAVSPGQRATISCKASQSIDYDGDSYMNWYQQKPGQPPKLLIYAASNLDTGIPARFSGSGSGTDFTLTISSVEEEDTATYYCQQSNEDPYTFGGGTKVEIKR
notes: as for B4
B10: 人源化单克隆抗体6K1/3H2 (antibody, human IgG1, kappa, V domains shown)
VH: QVQLVQSGAELKKPGASVKISCKASGFNIKDYYMHWVRQRPEQGLEWIGWIDPENGNTIYAQKFQGRATITADTSTDTAYMELSSLTSEDTAVYYCAREGDGNYLWFAYWGQGTLVTVSS
VL: DIQMTQSPSSLSASVGGKVTITCKASQDINKYIAWYQQKPGKGPKLLIHYTSTLEPGVPSRFSGSGSGRDFTFSISSLQPEDIATYYCLHYDNLLTFGGGTKVEIKR
notes: as for B3
B11: 人源化单克隆抗体6K3/3H3 (antibody, human IgG1, kappa, V domains shown)
VH: EVQLVESGAEVVKPGALVKVSCKASGFNIKDYYMHWVRQRPGQGLEWIGWIDPENGNTIYDQKFQGRVSITADTSTNTAYLELSSLTSEDTAVYYCAREGDGNYLWFAYWGQGTLVTVSS
VL: DIQMTQSPSSLSASLGDKVTITCKASQDINKYIAWYQHKPGKAPKLLIHYTSTLEPGVPSRFSGSGSGTDFTFSISSLEPEDIATYYCLHYDNLLTFGGGTKLEIKR
notes: as for B3
B12: 人源化单克隆抗体6K3/3H1 (antibody, human IgG1, kappa, V domains shown)
VH: QVKLVQSGAELVKPGASVKLSCKASGFNIKDYYMHWVRQRPGQGLEWIGWIDPENGNTMYAPKFQGRASITADTSTNTAYMQLSSLRSEDTAVYYCAREGDGNYLWFAYWGQGTLVTVSS
VL: DIQMTQSPSSLSASLGDKVTITCKASQDINKYIAWYQHKPGKAPKLLIHYTSTLEPGVPSRFSGSGSGTDFTFSISSLEPEDIATYYCLHYDNLLTFGGGTKLEIKR
notes: as for B3
B13: 人源化单克隆抗体6K2/3H3 (antibody, human IgG1, kappa, V domains shown)
VH: EVQLVESGAEVVKPGALVKVSCKASGFNIKDYYMHWVRQRPGQGLEWIGWIDPENGNTIYDQKFQGRVSITADTSTNTAYLELSSLTSEDTAVYYCAREGDGNYLWFAYWGQGTLVTVSS
VL: DIQLTQSPSSLSASVGDKVIITCKASQDINKYIAWYQQKPGKALKLLIHYTSTLETGVPSRFSGSGSGTDYTFSISNLQPEDIATYYCLHYDNLLTFGGGTKVELKR
notes: as for B3
B14: 人源化单克隆抗体6K2/3H1 (antibody, human IgG1, kappa, V domains shown)
VH: QVKLVQSGAELVKPGASVKLSCKASGFNIKDYYMHWVRQRPGQGLEWIGWIDPENGNTMYAPKFQGRASITADTSTNTAYMQLSSLRSEDTAVYYCAREGDGNYLWFAYWGQGTLVTVSS
VL: DIQLTQSPSSLSASVGDKVIITCKASQDINKYIAWYQQKPGKALKLLIHYTSTLETGVPSRFSGSGSGTDYTFSISNLQPEDIATYYCLHYDNLLTFGGGTKVELKR
notes: as for B3
B15: 人源化单克隆抗体6K1/3H3 (antibody, human IgG1, kappa, V domains shown)
VH: EVQLVESGAEVVKPGALVKVSCKASGFNIKDYYMHWVRQRPGQGLEWIGWIDPENGNTIYDQKFQGRVSITADTSTNTAYLELSSLTSEDTAVYYCAREGDGNYLWFAYWGQGTLVTVSS
VL: DIQMTQSPSSLSASVGGKVTITCKASQDINKYIAWYQQKPGKGPKLLIHYTSTLEPGVPSRFSGSGSGRDFTFSISSLQPEDIATYYCLHYDNLLTFGGGTKVEIKR
notes: as for B3
B16: 人源化单克隆抗体6K1/3H1 (antibody, human IgG1, kappa, V domains shown)
VH: QVKLVQSGAELVKPGASVKLSCKASGFNIKDYYMHWVRQRPGQGLEWIGWIDPENGNTMYAPKFQGRASITADTSTNTAYMQLSSLRSEDTAVYYCAREGDGNYLWFAYWGQGTLVTVSS
VL: DIQMTQSPSSLSASVGGKVTITCKASQDINKYIAWYQQKPGKGPKLLIHYTSTLEPGVPSRFSGSGSGRDFTFSISSLQPEDIATYYCLHYDNLLTFGGGTKVEIKR
notes: as for B3
B17: 人源化单克隆抗体6K2/3H2 (antibody, human IgG1, kappa, V domains shown)
VH: QVQLVQSGAELKKPGASVKISCKASGFNIKDYYMHWVRQRPEQGLEWIGWIDPENGNTIYAQKFQGRATITADTSTDTAYMELSSLTSEDTAVYYCAREGDGNYLWFAYWGQGTLVTVSS
VL: DIQLTQSPSSLSASVGDKVIITCKASQDINKYIAWYQQKPGKALKLLIHYTSTLETGVPSRFSGSGSGTDYTFSISNLQPEDIATYYCLHYDNLLTFGGGTKVELKR
notes: as for B3

The target in one test is T1, 人TSLP (human, UniProt Q969D9 29-159).
T1 construct: also called hTSLP; 人胸腺基质淋巴细胞生成素
The test is described as follows: BLI (ForteBio Blitz). On the technique in general: BLI is a label-free optical method that tracks binding on a fibre tip over time.
In the case of B1, the dissociation constant (Kd) (usually a measure of binding affinity in units of concentration) is 1.75 nM, the koff (commonly the rate constant with which the complex falls apart) came out at 0.000732 s⁻¹ and the on-rate constant (kon) (usually the second-order rate constant of association) is 418000 M⁻¹ s⁻¹.

The next test addresses rhTSLP-hFc (human). Kind of test: cell-based or functional assay.
Take B2: the “IC50, 抑制TSLP刺激的293F转染细胞STAT5-荧光素酶活性” value came out at 3.22 µg/mL.

As to B3, the “IC50, 抑制TSLP刺激的293F转染细胞STAT5-荧光素酶活性” value came out at 0.182 µg/mL.

The next test has as its target T2, rhTSLP-mFc融合蛋白 (human).
T2 construct: Expressed in 293F cells and purified on protein A; also called 人重组TSLP蛋白
The test is described as follows: ELISA: rhTSLP-mFc coated, goat anti-human IgG-HRP detection. For orientation: ELISA stands for enzyme-linked immunosorbent assay.
As for B4, the binding result is “binds”.

Turning to B5, the binding result is “binds”.

Consider B6, for which the binding result is on record as “binds”.

In the case of B7, the binding result was “binds”.

Consider B8, for which the binding result is “binds”.

For the molecule B9, the binding result is reported as “binds”.

On to B10, for which the binding result is “binds”.

For B11, the binding result is recorded as “binds”.

On to B12, for which the binding result is given as “binds”.

Turning to B13, the binding result is listed as “binds”.

As to B14, the binding result is on record as “binds”.

For B3, the binding result is “binds”.

Regarding B15, the binding result is given as “binds”.

With B16, the binding result was “binds”.

With B17, the binding result is on record as “binds”.

Another test addresses rhTSLP-hFc (human). Kind of test: competition ELISA: rhTSLP-hFc coated, antibody titrated against 2 μg/ml rhTSLPR-His, anti-His-HRP detection.
Take B1: the IC50 (as a rule, the midpoint of a concentration-inhibition curve) amounted to 0.324 µg/mL.

The values above are taken from patent CN111196850A (BEIJING HUIZHI HEYUAN BIOTECHNOLOGY CO LTD, dated 2020).
